{"source": "patent US20180137234A1", "about": "(University of Washington, published 2018)", "proteins": {"B1": {"name": "HR04C4_1 (designed binder)", "chain": "DECEEKARRVAEKVERLKRSGTSEDEIAEEVAREISEVIRTLKESGSSYEVICECVARIVAEIVEALKRSGTSAVEIAKIVARVISEVIRTLKESGSSYEVICECVARIVAEIVEALKRSGTSAAIIALIVALVISEVIRTLKESGSSFEVILECVIRIVLEIIEALKRSGTSEQDVMLIVMAVLLVVLATLQLSGS", "notes": "One subunit of a designed homotetramer (C4); also called tj10C4_G1"}, "B2": {"name": "ank3C2_1 (designed binder)", "chain": "SELGKRLIEAAENGNKDRVKDLLENGADVNASDSDGKTPLHLAAENGHAKVVLLLLEQGADPNAKDSDGKTPLHLAAENGHAVVVALLLMHGADPNAKDSDGKTPLHLAAENGHEEVVILLLAMGADPNTSDSDGRTPLDLAREHGNEEVVKVLEDH", "notes": "One subunit of a designed homodimer (C2) built from an idealized ankyrin repeat protein; It was expressed in E. coli with an N- or C-terminal (His)6 tag"}, "B3": {"name": "HR00C3_2 (designed binder)", "chain": "IEEVVAEMIDILAESSKKSIEELARAADNKTTEKAVAEAIEEIARLATAAIQLIEALAKNLASEEFMARAISAIAELAKKAIEAIYRLADNHTTDTFMARAIAAIANLAVTAILAIAALASNHTTEEFMARAISAIAELAKKAIEAIYRLADNHTTDKFMAAAIEAIALLATLAILAIALLASNHTTEEFMAKAISAIAELAKKAIEAIYRLADNHTSPTYIEKAIEAIEKIARKAIKAIEMLAKNITTEEYKEKAKSAIDEIREKAKEAIKRLEDNRT", "notes": "One subunit of a designed homotrimer (C3) built from a de novo designed repeat protein"}, "B4": {"name": "ank1C2_1 (designed binder)", "chain": "SELGKRLIEAAENGNKDRVKDLIENGADVNASDSDGRTPLHHAAENGHAEVVALLIEKGADVNAKDSDGRTPLHHAAENGHDEVVLILLLKGADVNAKDSDGRTPLHHAAENGHKRVVLVLILAGADVNTSDSDGRTPLDLAREHGNEEVVKALEKQ", "notes": "One subunit of a designed homodimer (C2) built from an idealized ankyrin repeat protein; also called ank1C2_G3; ANK1C2-G3"}, "B5": {"name": "1na0C3_3 (designed binder)", "chain": "NLAEKMYKAGNAMYRKGQYTIAIIAYTLALLKDPNNAEAWYNLGNAAYKKGEYDEAIEAYQKALELDPNNAEAWYNLGNAYYKQGDYDEAIEYYQKALELDPNNAEAKQNLGNAKQKQG", "notes": "One subunit of a designed homotrimer (C3) built from a consensus designed tpr protein"}}, "key": {"[1]": {"biological_target": "the molecule itself", "assay": "SEC-MALS and SAXS of the original construct"}, "[2]": {"biological_target": "the molecule itself", "assay": "X-ray crystal structure of the homodimer"}, "[3]": {"biological_target": "the molecule itself", "assay": "X-ray crystal structure of the homotrimer"}}}
{"protein": "B1", "values": [{"measurement": "binding result", "setting": "[1]", "value": "binds"}]}
{"protein": "B2", "values": [{"measurement": "binding result", "setting": "[2]", "value": "binds"}]}
{"protein": "B3", "values": [{"measurement": "binding result", "setting": "[3]", "value": "binds"}]}
{"protein": "B4", "values": [{"measurement": "binding result", "setting": "[2]", "value": "binds"}]}
{"protein": "B5", "values": [{"measurement": "binding result", "setting": "[3]", "value": "binds"}]}
